Measured values: publication PMC7423246, “A Peptide–Lectin Fusion Strategy for Developing a Glycan Probe for Use in Various Assay Formats” (Chemosensors (Basel, Switzerland), 2019)

Target: soy bean agglutinin conjugated to HRP (soy bean), P05046
Experiment: ELISA; soy bean agglutinin conjugated to HRP exposed to serial dilutions of PFA; colorimetric signal with TMB

soy bean agglutinin conjugated to HRP (soy bean), P05046, sequence (P05046 33-285): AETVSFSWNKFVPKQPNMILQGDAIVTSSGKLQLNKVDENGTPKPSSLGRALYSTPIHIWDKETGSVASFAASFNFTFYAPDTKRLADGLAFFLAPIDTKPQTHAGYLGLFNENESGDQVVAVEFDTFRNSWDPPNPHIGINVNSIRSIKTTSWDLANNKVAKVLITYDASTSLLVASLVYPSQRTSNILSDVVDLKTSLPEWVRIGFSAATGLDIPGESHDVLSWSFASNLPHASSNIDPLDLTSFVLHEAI

B1: Pseudomonas fluorescens agglutinin (PFA) (natural protein)
chain: MSKYAVANQWGGSSAPWHPGGTWVLGARDNQNVVAIEIKSGDGGKSFTGTMTYAGEGPIGFKAQRTGQNQYNVENQWGGNDAPWHPGGKWVIGGRDNQNVIALSVTSSDGGKNLSGTNTYANEGPIGFRGQIEVSHPQAPF
modifications: not checked
For B1, the Kd was 4 nM.
